The values below come from paper PMC12102438.

The target of the assay is KHK4083. Nature of the assay: BLI. As to conditions: 100 nmol/L KHK4083; parent: est. 1.0; read off a plot.
For the substance “Recombinant OX40-His protein (human OX40) (from UniProt P43489) D34A”, the ratio to parent is 0.8.

For “Recombinant OX40-His protein (human OX40) (from UniProt P43489) D40A”, the ratio to parent was found to be 2.

As for “Recombinant OX40-His protein (human OX40) (from UniProt P43489) D117A”, the ratio to parent was determined as 28.

On to “Recombinant OX40-His protein (human OX40) (from UniProt P43489) H30A”, for which the ratio to parent is 0.6.

Regarding “Recombinant OX40-His protein (human OX40) (from UniProt P43489) K82A”, the ratio to parent came to 15.

In the case of “Recombinant OX40-His protein (human OX40) (from UniProt P43489) K120A”, the ratio to parent amounted to 16.

As for “Recombinant OX40-His protein (human OX40) (from UniProt P43489) S38A”, the ratio to parent came out at 1.

Turning to “Recombinant OX40-His protein (human OX40) (from UniProt P43489) S118A”, the ratio to parent was determined as 6.4.

As for “Recombinant OX40-His protein (human OX40) (from UniProt P43489) T35A”, the ratio to parent is 0.6.

Consider “Recombinant OX40-His protein (human OX40) (from UniProt P43489) Y36A”, for which the ratio to parent is 1.6.

“Recombinant OX40-His protein (human OX40) (from UniProt P43489) Y119A”: the ratio to parent is 21.
